Assay results taken from publication PMC11309785.
pKd: −log10 of the molar value.

Assays:
Test in all cases: SPR; ProteOn XPR36, HC30M chip; IgG captured at low density (about 50 to 100 RU) by anti-human IgG (Fc) antibody, trimer flowed as analyte, highest concentration 3 µM; 1x HBS-EP+ pH 7.4 with BSA 1 mg/ml
[1] = biological target: BG18 inferred germline IgG, Glu at the (D3-3)+2 position (human)
[2] = biological target: BG18 inferred germline IgG, Asp at the (D3-3)+2 position (human)
[3] = biological target: BG18 inferred germline IgG, Gly at the (D3-3)+2 position (human)
Chain of BG18 inferred germline IgG, Gly at the (D3-3)+2 position (human) (heavy, as listed by the source, chain 1 of 2): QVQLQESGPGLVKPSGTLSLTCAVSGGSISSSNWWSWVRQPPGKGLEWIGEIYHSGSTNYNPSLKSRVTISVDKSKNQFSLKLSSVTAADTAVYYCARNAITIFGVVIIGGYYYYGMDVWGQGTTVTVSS
Chain of BG18 inferred germline IgG, Gly at the (D3-3)+2 position (human) (light, as listed by the source, chain 2 of 2): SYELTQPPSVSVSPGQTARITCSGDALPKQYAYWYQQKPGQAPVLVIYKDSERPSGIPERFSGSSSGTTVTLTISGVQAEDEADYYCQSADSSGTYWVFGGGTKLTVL

Chain of BG18 inferred germline IgG, Asp at the (D3-3)+2 position (human) (heavy, as listed by the source, chain 1 of 2): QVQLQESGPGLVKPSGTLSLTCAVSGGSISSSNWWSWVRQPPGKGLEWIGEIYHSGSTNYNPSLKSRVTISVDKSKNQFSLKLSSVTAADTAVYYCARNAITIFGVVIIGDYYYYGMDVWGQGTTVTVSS
Chain of BG18 inferred germline IgG, Asp at the (D3-3)+2 position (human) (light, as listed by the source, chain 2 of 2): as the sequence (light, as listed by the source, chain 2 of 2) above
Chain of BG18 inferred germline IgG, Glu at the (D3-3)+2 position (human) (heavy, as listed by the source, chain 1 of 2): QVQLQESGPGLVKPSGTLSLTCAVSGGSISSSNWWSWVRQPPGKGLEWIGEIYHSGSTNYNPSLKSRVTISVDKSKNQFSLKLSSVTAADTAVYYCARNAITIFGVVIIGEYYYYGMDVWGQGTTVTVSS
Chain of BG18 inferred germline IgG, Glu at the (D3-3)+2 position (human) (light, as listed by the source, chain 2 of 2): as the sequence (light, as listed by the source, chain 2 of 2) above

How did the pKd [1] turn out when “N332-GT5 trimer (BG505_MD65_congly_N332-GT5)” was run?
Its pKd is 9.15.

And the pKd [2]?
The pKd was 7.41.

And the pKd [3]?
The pKd was 5.75.
